{"source": "paper PMC13462943", "about": "“De novo EHMT2 variants cause an autosomal dominant EHMT2-related Kleefstra syndrome via loss of G9a methyltransferase activity” (Nature Communications, 2026)", "proteins": {"B1": {"name": "G9a methyltransferase domain (aa residues 913-1193), K1162R (domain or fragment, human, UniProt Q96KQ7-1 913-1193, looked up)", "chain": "NRAIRTEKIICRDVARGYENVPIPCVNGVDGEPCPEDYKYISENCETSTMNIDRNITHLQHCTCVDDCSSSNCLCGQLSIRCWYDKDGRLLQEFNKIEPPLIFECNQACSCWRNCKNRVVQSGIKVRLQLYRTAKMGWGVRALQTIPQGTFICEYVGELISDAEADVREDDSYLFDLDNKDGEVYCIDARYYGNISRFINHLCDPNIIPVRVFMLHQDLRFPRIAFFSSRDIRTGEELGFDYGDRFWDIRSKYFTCQCGSEKCKHSAEAIALEQSRLARLD", "notes": "G9a (EHMT2), human, methyltransferase (SET) domain, aa residues 913-1193, patient variant; numbered on NP_006700.3; De novo patient variant made by site-directed mutagenesis; also called p.Lys1162Arg; c.3485A>G; source: E. coli BL21-CodonPlus (DE3)-RIPL, pET28a, purified (IMAC, TEV cleavage, SEC, second IMAC); not shown: His6, N-terminal, cleaved"}, "B2": {"name": "G9a methyltransferase domain (aa residues 913-1193), Del 1163-4 (domain or fragment, human, UniProt Q96KQ7-1 913-1193, looked up)", "chain": "NRAIRTEKIICRDVARGYENVPIPCVNGVDGEPCPEDYKYISENCETSTMNIDRNITHLQHCTCVDDCSSSNCLCGQLSIRCWYDKDGRLLQEFNKIEPPLIFECNQACSCWRNCKNRVVQSGIKVRLQLYRTAKMGWGVRALQTIPQGTFICEYVGELISDAEADVREDDSYLFDLDNKDGEVYCIDARYYGNISRFINHLCDPNIIPVRVFMLHQDLRFPRIAFFSSRDIRTGEELGFDYGDRFWDIKYFTCQCGSEKCKHSAEAIALEQSRLARLD", "notes": "G9a (EHMT2), human, methyltransferase (SET) domain, aa residues 913-1193, patient variant; numbered on NP_006700.3; De novo patient variant made by site-directed mutagenesis; also called p.Ser1163_Lys1164del; c.3487_3492del; source: E. coli BL21-CodonPlus (DE3)-RIPL, pET28a, purified (IMAC, TEV cleavage, SEC, second IMAC); not shown: His6, N-terminal, cleaved"}, "B3": {"name": "GLP methyltransferase domain (aa 1001-1266), wild type (domain or fragment, human, UniProt Q9H9B1-1 1001-1266, looked up)", "chain": "DRPSPVERIVSRDIARGYERIPIPCVNAVDSEPCPSNYKYVSQNCVTSPMNIDRNITHLQYCVCIDDCSSSNCMCGQLSMRCWYDKDGRLLPEFNMAEPPLIFECNHACSCWRNCRNRVVQNGLRARLQLYRTRDMGWGVRSLQDIPPGTFVCEYVGELISDSEADVREEDSYLFDLDNKDGEVYCIDARFYGNVSRFINHHCEPNLVPVRVFMAHQDLRFPRIAFFSTRLIEAGEQLGFDYGERFWDIKGKLFSCRCGSPKCRHS", "notes": "GLP (EHMT1), human, methyltransferase (SET) domain, aa 1001-1266; NM_024757.5 is printed for the EHMT1 variant of the Kleefstra syndrome 1 patient, not expressly for this construct; also called EHMT1; euchromatin histone lysine methyltransferase 1; source: E. coli BL21-CodonPlus (DE3)-RIPL, pET28a, purified (IMAC, TEV cleavage, SEC, second IMAC); not shown: His6, N-terminal, cleaved"}, "B4": {"name": "G9a methyltransferase domain (aa residues 913-1193), wild type (domain or fragment, human, UniProt Q96KQ7-1 913-1193, looked up)", "chain": "B1 chain with R250K", "notes": "G9a (EHMT2), human, methyltransferase (SET) domain, aa residues 913-1193; variants numbered on NP_006700.3; His tag removed by TEV protease; also called EHMT2; euchromatin histone lysine methyltransferase 2; source: E. coli BL21-CodonPlus (DE3)-RIPL, pET28a, purified (IMAC, TEV cleavage, SEC, second IMAC); not shown: His6, N-terminal, cleaved"}, "B5": {"name": "G9a methyltransferase domain (aa residues 913-1193), Del 1076-9 (domain or fragment, human, UniProt Q96KQ7-1 913-1193, looked up)", "chain": "NRAIRTEKIICRDVARGYENVPIPCVNGVDGEPCPEDYKYISENCETSTMNIDRNITHLQHCTCVDDCSSSNCLCGQLSIRCWYDKDGRLLQEFNKIEPPLIFECNQACSCWRNCKNRVVQSGIKVRLQLYRTAKMGWGVRALQTIPQGTFICEYVGELISDAREDDSYLFDLDNKDGEVYCIDARYYGNISRFINHLCDPNIIPVRVFMLHQDLRFPRIAFFSSRDIRTGEELGFDYGDRFWDIKSKYFTCQCGSEKCKHSAEAIALEQSRLARLD", "notes": "G9a (EHMT2), human, methyltransferase (SET) domain, aa residues 913-1193, patient variant; numbered on NP_006700.3; also called p.Glu1076_Val1079del; c.3225_3236del; source: E. coli BL21-CodonPlus (DE3)-RIPL, pET28a, purified (IMAC, TEV cleavage, SEC, second IMAC); not shown: His6, N-terminal, cleaved"}, "B6": {"name": "G9a methyltransferase domain (aa residues 913-1193), A1077S (domain or fragment, human, UniProt Q96KQ7-1 913-1193, looked up)", "chain": "B1 chain with A165S, R250K", "notes": "G9a (EHMT2), human, methyltransferase (SET) domain, aa residues 913-1193, patient variant; numbered on NP_006700.3; De novo patient variant made by site-directed mutagenesis; also called p.Ala1077Ser; c.3229G>T; source: E. coli BL21-CodonPlus (DE3)-RIPL, pET28a, purified (IMAC, TEV cleavage, SEC, second IMAC); not shown: His6, N-terminal, cleaved"}, "B7": {"name": "G9a methyltransferase domain (aa residues 913-1193), A1077T (domain or fragment, human, UniProt Q96KQ7-1 913-1193, looked up)", "chain": "B1 chain with A165T, R250K", "notes": "G9a (EHMT2), human, methyltransferase (SET) domain, aa residues 913-1193, patient variant; numbered on NP_006700.3; De novo patient variant made by site-directed mutagenesis; also called p.Ala1077Thr; c.3229G>A; source: E. coli BL21-CodonPlus (DE3)-RIPL, pET28a, purified (IMAC, TEV cleavage, SEC, second IMAC); not shown: His6, N-terminal, cleaved"}, "B8": {"name": "G9a methyltransferase domain (aa residues 913-1193), N1112S (domain or fragment, human, UniProt Q96KQ7-1 913-1193, looked up)", "chain": "B1 chain with N200S, R250K", "notes": "G9a (EHMT2), human, methyltransferase (SET) domain, aa residues 913-1193, patient variant; numbered on NP_006700.3; De novo patient variant made by site-directed mutagenesis; also called p.Asn1112Ser; c.3335A>G; source: E. coli BL21-CodonPlus (DE3)-RIPL, pET28a, purified (IMAC, TEV cleavage, SEC, second IMAC); not shown: His6, N-terminal, cleaved"}, "B9": {"name": "G9a methyltransferase domain (aa residues 913-1193), F1158L (domain or fragment, human, UniProt Q96KQ7-1 913-1193, looked up)", "chain": "B1 chain with F246L, R250K", "notes": "G9a (EHMT2), human, methyltransferase (SET) domain, aa residues 913-1193, patient variant; numbered on NP_006700.3; De novo patient variant made by site-directed mutagenesis; also called p.Phe1158Leu; c.3472T>C; source: E. coli BL21-CodonPlus (DE3)-RIPL, pET28a, purified (IMAC, TEV cleavage, SEC, second IMAC); not shown: His6, N-terminal, cleaved"}}, "note": "Numbering of substitutions follows the chain as printed."}
{"target": "the molecule itself", "experiment": "native MS; dimerization of apo proteins: 5 µM protein in 150 mM ammonium acetate pH 7.5, 0.5 mM DTT; monomer-dimer distribution quantified"}
{"protein": "B1", "stoichiometry N": 2}
{"protein": "B2", "stoichiometry N": 2}
{"protein": "B3", "stoichiometry N": 2}
{"protein": "B4", "stoichiometry N": 2}
{"protein": "B5", "stoichiometry N": 2}
{"protein": "B6", "stoichiometry N": 2}
{"protein": "B7", "stoichiometry N": 2}
{"protein": "B8", "stoichiometry N": 2}
{"protein": "B9", "stoichiometry N": 2}
